{
  "source": "the supplement of paper PMC10201428",
  "parents": {"B1": {"name": "library; a variant is named by its letters at N, in order (parent)", "chain": "AATGTTGTTGATGCAACCATAAAGTGATATTTAATAATTATTTATAATCAGCAACTTAACCACAAAACAACCATATATTGATATNTCACAAAACAACCATAANTTGATATTTTTGTGAATCGAGTATTTCAGCAAAACTACTGCAGTAAGAA"}},
  "key": {"[1]": {"variants_of": "B1", "test": "relative integration efficiency (T-LR orientation) vs wild-type transposon end (log2 (normalized fold change)); transposon end mutated: left end; higher = more efficient transposition", "settings": "with VchCAST RNA-guided transposition machinery (E. coli BL21(DE3) host, lacZ target)", "summary_of_the_method": "(§1)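 A T7-driven effector plasmid encoding a CRISPR array, tniQ-cas8-cas7-cas6 and tnsA-tnsB-tnsC was co-transformed into E. coli BL21(DE3) together with a pUC57 mini-transposon donor holding barcoded pools of 1549 left-end or 1849 right-end variants. Transformants were plated with 0.1 mM IPTG at 37°C for 18 h. Illumina sequencing of PCR-amplified input plasmids and genomic integration junctions gave barcode abundances, and relative integration efficiency is their output/input fold change, normalised to reference barcodes and log-transformed.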"}, "[2]": {"variants_of": "B1", "test": "relative integration efficiency (T-RL orientation) vs wild-type transposon end (log2 (normalized fold change)); transposon end mutated: left end; higher = more efficient transposition", "settings": "with VchCAST RNA-guided transposition machinery (E. coli BL21(DE3) host, lacZ target)", "summary_of_the_method": "as §1"}},
  "note": "± gives the standard deviation of the averaged measurements.",
  "data": [
    {"variant": "AATGTTGTTGATGCAACCATATATTGATATCTCATAATTATTTATAATCAGCAACTTAACCACAAAACAACCATAAGTTGATATTTTACAAAACAACCATAAAATGATAATTATGTGAATCGAGTATTTCAGCAAAACTACTGCAGTAAGAA", "values": [
      {"measurement": "relative integration efficiency (log2)", "setting": "[1]", "result": "0.0775 ± 0.37"},
      {"measurement": "relative integration efficiency (log2)", "setting": "[2]", "result": "-0.819 ± 0.52"}
    ]},
    {"variant": "AATGTTGTTGATGCAACCATAAAGTGATATTTAATAATTATTTATAATCAGCAACTTAACCACAAAACAACCATTAATTGATATCTCACAAAACAACCATAAGTTGATATTTTTGTGAATCGAGTATTTCAGCAAAACTACTGCAGTAAGAA", "values": [
      {"measurement": "relative integration efficiency (log2)", "setting": "[1]", "result": "-0.104 ± 0.2"},
      {"measurement": "relative integration efficiency (log2)", "setting": "[2]", "result": "-0.129 ± 0.13"}
    ]},
    {"variant": "AATGTTGTTGATGCAACCATATATTGATATCTCATAATTATTTATAATCAGCAACTTAACCACAAAACAACCATAAAGTGATATTTAACAAAACAACCATAAAATGATAATTATGTGAATCGAGTATTTCAGCAAAACTACTGCAGTAAGAA", "values": [
      {"measurement": "relative integration efficiency (log2)", "setting": "[1]", "result": "-0.444 ± 0.45"},
      {"measurement": "relative integration efficiency (log2)", "setting": "[2]", "result": "-0.395 ± 0.24"}
    ]},
    {"variant": "AATGTTGTTGATGCAACCATAAAGTGATATTTAATAATTATTTATAATCAGCAACTTAACCACAAAACAACCATAGCGGGATATCTCACAAAACAACCATAAGTTGATATTTTTGTGAATCGAGTATTTCAGCAAAACTACTGCAGTAAGAA", "values": [
      {"measurement": "relative integration efficiency (log2)", "setting": "[1]", "result": "-3.06 ± 1.4"},
      {"measurement": "relative integration efficiency (log2)", "setting": "[2]", "result": "-2.26 ± 0.77"}
    ]},
    {"variant": "AATGTTGTTGATGCAACCATAAAGTGATATTTAATAATTATTTATAATCAGCAACTTAACCACAAAACAACCATATATTGATATCTCACAAAACAACCATAAGTTGCGATTTTTGTGAATCGAGTATTTCAGCAAAACTACTGCAGTAAGAA", "values": [
      {"measurement": "relative integration efficiency (log2)", "setting": "[1]", "result": "-0.997 ± 1.2"},
      {"measurement": "relative integration efficiency (log2)", "setting": "[2]", "result": "-1.01 ± 0.6"}
    ]},
    {"variant": "AATGTTGTTGATGCAACCATAAAGTGATATTTAATAATTATTTATAAAGAGCAACTTAACCACAAAACAACCATATATTGATATCTCACAAAACAACCATAAGTTGATATTTTTGTGAATCGAGTATTTCAGCAAAACTACTGCAGTAAGAA", "values": [
      {"measurement": "relative integration efficiency (log2)", "setting": "[1]", "result": "0.449 ± 0.71"},
      {"measurement": "relative integration efficiency (log2)", "setting": "[2]", "result": "0.353 ± 0.18"}
    ]},
    {"variant": "AATGTTGTTGATGCCACCATAAAGTGATATTTAATAATTATTTATAATCAGCAACTTAACCACAAAACAACCATATATTGATATCTCACAAAACAACCATAAGTTGATATTTTTGTGAATCGAGTATTTCAGCAAAACTACTGCAGTAAGAA", "values": [
      {"measurement": "relative integration efficiency (log2)", "setting": "[1]", "result": "0.321 ± 0.27"},
      {"measurement": "relative integration efficiency (log2)", "setting": "[2]", "result": "0.0839 ± 0.1"}
    ]},
    {"variant": "AGTGTTGTTGATGCAACCATAAAGTGATATTTAATAATTATTTATAATCAGCAACTTAACCACAAAACAACCATATATTGATATCTCACAAAACAACCATAAGTTGATATTTTTGTGAATCGAGTATTTCAGCAAAACTACTGCAGTAAGAA", "values": [
      {"measurement": "relative integration efficiency (log2)", "setting": "[1]", "result": "0.28 ± 0.065"},
      {"measurement": "relative integration efficiency (log2)", "setting": "[2]", "result": "0.239 ± 0.039"}
    ]},
    {"variant": "AATGTTGTTGATGCAACCATAAAGTGATATTTAATAATTATTTATAATCAGCAACTTAACCACAAATCAACCATATATTGATATCTCACAAAACAACCATAAGTTGATATTTTTGTGAATCGAGTATTTCAGCAAAACTACTGCAGTAAGAA", "values": [
      {"measurement": "relative integration efficiency (log2)", "setting": "[1]", "result": "-0.588 ± 0.78"},
      {"measurement": "relative integration efficiency (log2)", "setting": "[2]", "result": "-0.202 ± 0.27"}
    ]},
    {"variant": "AATGTTGTTGATGCAACCATAAAGTGATATTTAATAATTATTTATAATATGTAACCAAAAGTAAAAACAACCATATATTGATATCTCACAAAACAACCATAAGTTGATATTTTTGTGAATCGAGTATTTCAGCAAAACTACTGCAGTAAGAA", "values": [
      {"measurement": "relative integration efficiency (log2)", "setting": "[1]", "result": "-3.63 ± 0.43"},
      {"measurement": "relative integration efficiency (log2)", "setting": "[2]", "result": "-5.28 ± 0.94"}
    ]}
  ]
}
